In PMC10930109 one finds stoichiometry N data, which are given here for 1 substance.

The target of the assay is Envelope (E) protein of tick-borne encephalitis virus strain Sofjin-Chumakov (Far-Eastern subtype), (Tick-borne encephalitis virus, strain Sofjin-Chumakov) (UniProt P07720). Put plainly: cryo-EM structure.

One may read the stoichiometry N as the number of molecules, sites or subunits per partner or assembly. In turn, “Envelope (E) protein of tick-borne encephalitis virus strain Sofjin-Chumakov (Far-Eastern subtype), (from UniProt P07720) (natural protein)” registered a stoichiometry N of 2.
